# Reference: US7666644B2, “Glyphosate-N-acetyltransferase (GAT) genes” (Verdia, Inc., priority 2004, dated 2010)
# Columns and labels:
# O=C(O)CNCP(=O)(O)O = assay: Standard spectrophotometric kcat and KM determination (Example 7); assay type: biochemical; conditions: other: 20 mM HEPES pH 6.8, 10% ethylene glycol, 0.2 mM acetyl CoA, about 23° C.
# Method: KM was calculated from the initial reaction rates obtained from concentrations of glyphosate ranging from 0.125 to 10 mM, using the Lineweaver-Burke transformation of the Michaelis-Menten equation. kcat/KM was determined by dividing the value determined for kcat by the value determined for KM.
# [1] = assay type: physicochemical; conditions: buffer, pH 7.2
# Method: The half lives of several GAT polypeptides were also measured at 37.5° C. according to the following procedure. GAT polypeptides 401 (SEQ ID NO: 6), 17-15H3 (SEQ ID NO: 601), 20-8H12 (SEQ ID NO: 739), 22-13B12 (SEQ ID NO: 781), 22-15B4 (SEQ ID NO: 946) and 22-18C5 (SEQ ID NO: 795) were incubated in a matrix of 25 mM Hepes, pH 7.2, 10 mM KCl and 10% methanol (“HKM”). At various timepoints, aliquots were withdrawn and assayed in triplicate at 22° C. using the continuous spectrophotometric assay described in Example 7 using saturating concentrations of glyphosate (20 mM for 401, 5 mM for the rest) and AcCoA (167 uM). The standard error at each time point averaged about 2.9%. GAT activity was plotted as a function of incubation time and the data was fitted to a curve for exponential decay (y=e^−x), where y is enzyme activity and x is time in hours, from which half life was calculated.
# [2] = GAT activity with substrate L-serine (DTNB); assay type: biochemical
# Method: (§1) GAT activity of several GAT polypeptides of the present invention was evaluated with respect to a number of amino acid substrates. The GAT polypeptide, AcCoA and amino substrate were incubated in 25 mM Hepes, pH 6.8, 10% ethylene glycol in the wells of a 96-well polystyrene plate. After 30 minutes, the reactions were stopped by the addition of 30 μl of 10 mM 5,5′-dithiobis-2-nitrobenzoate (DTNB) in 500 mM Tris, pH 7.5. After 2 minutes, absorbance was read at 412 nm in a Spectramax Plus plate reader (Molecular Devices, Sunnyvale, Calif.).
# [3] = GAT activity with substrate L-aspartate (DTNB); assay type: biochemical
# Method: as §1
# [4] = GAT activity with other L-amino acid substrates (DTNB); assay type: biochemical
# Method: as §1
# tobacco plants = assay: Herbicide spray tests of GAT expressing tobacco plants; assay type: in vivo, Nicotiana tabacum
# Method: Tobacco shoots generated as described in EXAMPLE 9 were excised from the explants and transferred to basal root induction (BRI) medium composed of half-strength Murashige and Skoog (MS) medium, pH 5.7, with 1.5% sucrose, 0.3% Gelrite, 0-200 uM glyphosate and 400 ug/ml Timentin. Rooted plants and axillary shoots were clonally propagated by cutting the stem and transferring it to fresh BRI medium until the desired number of clones was obtained. Rooted plants were carefully removed from the solid medium. Prior to placing the plants into small pots of soil, the roots were washed to remove any remaining Gelrite. A protective plastic cover was kept over the plants for at least one week until the plants were well established.
# To determine if GAT expressing tobacco plants could tolerate simulated field rate sprays of glyphosate, clonal lines of several events per GAT variant were tested. A typical test was set up as follows: One clone from each event was sprayed with 1 ml of solution containing the isopropylamine salt of glyphosate (Sigma P5671) and 0.125% Triton X-100, pH 6.8 such that the amount of active ingredient sprayed was equivalent to that present in commercial glyphosate products. For example, to achieve 32 oz/acre (1×) of herbicide containing 40% active ingredient (“ai”), 2.4 ul of 40% ai formulation was diluted into 1 ml water and sprayed on a plant in a 4-inch square pot (16 in^2). A mock application (0×) with surfactant only was also included. In some cases a second spray was applied 1-4 weeks later. Plants were kept in controlled growth rooms at 25° C. and 70% humidity with 16 hr light.
# Seed-grown wild type plants were also sprayed. […] All 0× plants were healthy, including the non-GAT control plants. Three weeks later all of the surviving plants were sprayed with an 8× dose.
# soybean plants = assay: T0 soybean greenhouse glyphosate spray, plant discoloration scores; assay type: in vivo
# Method: Soybean plants expressing GAT variant transgenes were produced using the method of particle gun bombardment (see Klein et al. (1987) Nature 327:70-73) using a DuPont Biolistic PDS1000/He instrument. The selection agent used during the transformation process was hygromycin. Either the hygromycin selectable marker gene remained in the transgenic events or the hygromycin gene was excised by methods known in the art. DNA fragments were prepared with a synthetic constitutive promoter, a GAT variant and PinII terminator. The selectable marker gene, comprising the 35S CaMV promoter, HPT gene and NOS terminator, was cobombarded with the GAT gene variant as described above. Bombarded soybean embryogenic suspension tissue was cultured for one week in the absence of selection agent. Embryogenic suspension tissue was placed in liquid selection medium for 6 weeks. Putative transgenic suspension tissue was sampled for PCR analysis to determine the presence of the GAT gene. Putative transgenic suspension culture tissue was maintained in selection medium for 3 weeks to obtain enough tissue for plant regeneration. Suspension tissue was matured for 4 weeks using standard procedures; matured somatic embryos were desiccated for 4-7 days and then placed on germination induction medium for 2-4 weeks. Germinated plantlets were transferred to soil in cell pack trays for 3 weeks for acclimatization. Plantlets were potted to 10-inch pots in the greenhouse for evaluation of glyphosate resistance.
# To determine the level of glyphosate resistance of transgenic soybeans expressing the GAT variant transgenes, T0 plants were sprayed with glyphosate (Roundup ULTRA MAX™) in the greenhouse. Plant resistance levels were evaluated by […] • 7=minor leaf/stem discoloration • 5=worse leaf/stem discoloration • 3=severely discolored plant or dying plant • 1=dead plant
# One to four plants were sent to the greenhouse from each independent transgenic event. An additional 1-2 plants per event were grown in controlled environment growth chambers for seed production and were not sprayed with glyphosate. The greenhouse plants were sprayed at 1×, 2× or 4× glyphosate (1× glyphosate=26 ounces/acre of RoundUp ULTRA MAX™) 3-4 weeks after transfer to soil. The T0 plant discoloration scores with 2× and 4× spray rates are shown in Table 10 and Table 11, respectively.
# [5] = 10 days after 2X glyphosate (1× = 26 ounces/acre)
molecule,measurement,setting,value
"GAT polypeptide (glyphosate-N-acetyltransferase), SEQ ID NO:300 (Bacillus licheniformis DSM 13 = ATCC 14580; A39T/E119K/E67Q/E68K/H57N/I132T/I135V/K58Q/L35S/S62P/V114A)",Km,O=C(O)CNCP(=O)(O)O,650 µM
same,kcat,O=C(O)CNCP(=O)(O)O,4.93 s⁻¹
"GAT polypeptide (glyphosate-N-acetyltransferase), SEQ ID NO:457 (Bacillus licheniformis DSM 13 = ATCC 14580; A28V/E119K/E65Q/E67Q/E68K/G37R/I132T/I135V/I15L/I2L/K101R/K144R/K58Q/L145I/L97I/R18K/R92K/T89S/V114A/Y130F/Y45F)",Km,O=C(O)CNCP(=O)(O)O,100 µM
same,kcat,O=C(O)CNCP(=O)(O)O,1.97 s⁻¹
"22-15B4: GAT enzyme SEQ ID NO:789; Table 9 prints SEQ ID NO: 946 (protein, D_S00397832_GAT22-15B4) MIEVKPINAEDTYDLRHRVLRPNQPIEACMFDSDLMRSAFHLGGFYGGKLISVASFHQAEHTELQGQKQYQLRGVATLEGYREQKAGSSLVKHAEEILRKRGVDLLWCNARTSASGYYKKLGFSEQGEVFDTPPVGPHILMYKRIT",Half-life,[1],26 h
"20-8H12: evolved GAT; polypeptide SEQ ID NO:739, gene SEQ ID NO:738 (protein, D_S00341806_GAT20-8H12) MIEVKPINAEDTYELRHRVLRPNQPIEACIFESDLMRGAFHLGGFYGGRLISVASFHQAEHSELQGQKQYQLRGMATLEGYREQKAGSSLVKHAEEILRKRGADLLWCNARTSASGYYKKLGFSEQGEVFDTPPVGPHILMYKRIT",Half-life,[1],54 h
"22-18C5: GAT polypeptide, SEQ ID NO: 795 (protein, D_S00398097_GAT22-18C5) MIEVKPINAEDTYDLRHRVLRPNQPIEACMFESDLTRGAFHLGGFYGGKLISVASFHQAEHSELQGQKQYQLRGVATLEGYREQKAGTSLVKHAEEILRKRGVDLLWCNARTSASGYYRKLGFSEQGEVFDTPPVGPHILMYKRIT",Half-life,[1],43 h
"401: native GAT polypeptide corresponding to SEQ ID NO: 6 (protein, listed as Bacillus licheniformis, ST401 GAT) MIEVKPINAEDTYEIRHRILRPNQPLEACMYETDLLGGAFHLGGYYRGKLISIASFHKAEHSELEGEEQYQLRGMATLEGYREQKAGSTLIRHAEELLRKKGADLLWCNARTSVSGYYEKLGFSEQGEVYDIPPIGPHILMYKKLT",activity with L-serine compared with glyphosate,[2],about 4.7 times
same,kcat/KM % of glyph,[2]; Substrate Serine,471%
same,Half-life,[1],14 h
same,activity with L-aspartate compared with glyphosate,[3],about as active
same,kcat/KM % of glyph,[3]; Substrate Aspartate,85.5%
same,"number of amino acids with detectable activity, in addition to glyphosate",[4],12
same,activity relative to activity towards glyphosate,"[4]; L-alanine, 1 mM",33%
same,activity relative to activity towards glyphosate,"[4]; L-asparagine, 1 mM",27%
same,activity relative to activity towards glyphosate,"[4]; L-cysteine, 1 mM",50%
same,activity relative to activity towards glyphosate,"[4]; L-glutamate, 1 mM",51%
same,activity relative to activity towards glyphosate,"[4]; L-glutamine, 1 mM",32%
same,activity relative to activity towards glyphosate,"[4]; L-histidine, 1 mM",10%
same,activity relative to activity towards glyphosate,"[4]; L-threonine, 1 mM",250%
same,activity relative to activity towards glyphosate,"[4]; L-tyrosine, 1 mM",18%
same,activity relative to activity towards glyphosate,"[4]; L-valine, 1 mM",12%
same,activity on N-methyl derivatives of amino acids,"[4]; N-methyl derivatives of L-aspartate (2 mM), L-alanine (10 mM) and glycine (sarcosine, 10 mM)",No detectable activity
same,activity relative to activity towards glyphosate,"[4]; glycine, 1 mM",21%
same,activity relative to activity towards glyphosate,"[4]; the other protein amino acids, either undetected or less than 3%",less than 3%
"0—5D3: evolved GAT gene, SEQ ID NO:193 (nucleic acid, Synthetic nucleic acid sequence; 0_5D3) DNA: ATGCTAGAGGTGAAACCGATTAACGCAGAGGATACCTATGAACTAAGGCATAGAATACTCAGACCAAACCAGCCGATAGAAGCGTGTATGTATGAAAGCGATTTACTTCGTGGTGCATTTCACTTAGGCGGCTATTACAGGGGCAAACTGATTTCCATAGCTTCATTCCACCAGGCCGAGCACTCAGAACTCCAAGGCCAGAAACAGTACCAGCTCCGAGGTATGGCTACCTTGGAAGGTTATCGTGAGCAGAAAGCGGGATCGAGTCTAATTAAACACGCTGAAGAAATTCTTCGTAAGAGGGGGGCGGACTTGCTTTGGTGTAATGCGCGGACATCCGCCTCAGGCTACTACAAAAAGTTAGGCTTCAGCGAGCAGGGAGAGATATTTGAAACGCCGCCAGTAGGACCTCACATCCTGATGTATAAAAGGATCACATAA",outcome two weeks after glyphosate spray,"tobacco plants; 0.5, 2 or 4× glyphosate (1× = 32 oz/acre of 40% ai), clonally propagated events, average of 5 leaves",survived the spraying procedure without signs of glyphosate damage
same,outcome after second spray with an 8× dose,tobacco plants; 8× glyphosate three weeks later,survived
same,% EVENTS @ 3-6,soybean plants; 10 days after 2X glyphosate,11% (3)
same,% EVENTS @ 7-8,soybean plants; [5],15% (4)
"18-28D9c: GAT transgene, SEQ ID NO:824 (nucleic acid, Synthetic nucleic acid sequence; CDS (1)...(441); 18-28D9c) DNA: ATGATAGAGGTGAAACCGATTAACGCAGAGGATACCTATGAACTAAGGCATAGAATACTCAGACCAAACCAGCCGATAGAAGCGTGTATGTTTGAAAGCGATTTACTTCGTGGTGCATTTCACTTAGGCGGCTTTTACAGGGGCAAACTGATTTCCATAGCTTCATTCCACCAGGCCGAGCACTCGGAACTCCAAGGCCAGAAACAGTACCAGCTCCGAGGTATGGCTACCTTGGAAGGTTATCGTGAGCAGAAAGCGGGATCAACTCTAGTTAAACACGCTGAAGAAATCCTTCGTAAGAGGGGGGCGGACATGCTTTGGTGTAATGCGAGGACATCCGCCTCAGGCTACTACAAAAAGTTAGGCTTCAGCGAGCAGGGAGAGATATTTGACACGCCGCCAGTAGGACCTCACATCCTGATGTATAAAAGGATCACATAA",% EVENTS @ 3-6,soybean plants; 10 days after 2X glyphosate,74% (23)
same,% EVENTS @ 7-8,soybean plants; [5],8% (3)
same,% EVENTS @ 3-6,soybean plants; 10 days after 4X glyphosate,43% (10)
same,% EVENTS @ 7-8,soybean plants; 10 days after 4X glyphosate,8% (2)
